Measured values taken from patent US20240270846A1 (published 2024).

B1: CE115HA000 H chain altered form N53K (antibody, human IgG1, kappa, L234A L235A, N297A, name in Kabat numbering)
heavy: QVQLVESGGGVVQPGRSLRLSCAASGFTFSNAWMHWVRQAPGKGLEWVAQIKAKSKNYATYYAESVKGRFTISRDDSKNSLYLQMNSLKTEDTAVYYCRYVHYGAYYGVDAWGQGTTVTVSSASTKGPSVFPLAPSSKSTSGGTAALGCLVKDYFPEPVTVSWNSGALTSGVHTFPAVLQSSGLYSLSSVVTVPSSSLGTQTYICNVNHKPSNTKVDKKVEPKSCDKTHTCPPCPAPEAAGGPSVFLFPPKPKDTLMISRTPEVTCVVVDVSHEDPEVKFNWYVDGVEVHNAKTKPREEQYASTYRVVSVLTVLHQDWLNGKEYKCKVSNKALPAPIEKTISKAKGQPREPQVYTLPPSRCELTKNQVSLSCAVKGFYPSDIAVEWESNGQPENNYKTTPPVLDSDGSFFLVSKLTVDKSRWQQGNVFSCSVMHEALHNHYTQKSLSLSPDYKDDDDK
chain: EPKSSDKTHTCPPCPAPELLGGPSVFLFPPKPKDTLMISRTPEVTCVVVDVSHEDPEVKFNWYVDGVEVHNAKTKPREEQYNSTYRVVSVLTVLHQDWLNGKEYKCKVSNKALPAPIEKTISKAKGQPREPQVCTLPPSRDELTKNQVSLWCLVKGFYPSDIAVEWESNGQPENNYKTTPPVLDSDGSFFLYSKLTVDKSRWQQGNVFSCSVMHEALHNRYTQKSLSLSP
light: DIVMTQSPLSLPVTPGEPASISCRSSQSLVHSNRNTYLHWYQQKPGQAPRLLIYKVSNRFSGVPDRFSGSGSGTDFTLKISRVEAEDVGVYYCGQGTQVPYTFGQGTKLEIKRTVAAPSVFIFPPSDEQLKSGTASVVCLLNNFYPREAKVQWKVDNALQSGNSQESVTEQDSKDSTYSLSSTLTLSKADYEKHKVYACEVTHQGLSSPVTKSFNRGEC
notes: one-arm antibody
B2: CE115HA000 H chain altered form N53S (antibody, human IgG1, kappa, L234A L235A, N297A, name in Kabat numbering)
heavy: QVQLVESGGGVVQPGRSLRLSCAASGFTFSNAWMHWVRQAPGKGLEWVAQIKAKSSNYATYYAESVKGRFTISRDDSKNSLYLQMNSLKTEDTAVYYCRYVHYGAYYGVDAWGQGTTVTVSSASTKGPSVFPLAPSSKSTSGGTAALGCLVKDYFPEPVTVSWNSGALTSGVHTFPAVLQSSGLYSLSSVVTVPSSSLGTQTYICNVNHKPSNTKVDKKVEPKSCDKTHTCPPCPAPEAAGGPSVFLFPPKPKDTLMISRTPEVTCVVVDVSHEDPEVKFNWYVDGVEVHNAKTKPREEQYASTYRVVSVLTVLHQDWLNGKEYKCKVSNKALPAPIEKTISKAKGQPREPQVYTLPPSRCELTKNQVSLSCAVKGFYPSDIAVEWESNGQPENNYKTTPPVLDSDGSFFLVSKLTVDKSRWQQGNVFSCSVMHEALHNHYTQKSLSLSPDYKDDDDK
chain: EPKSSDKTHTCPPCPAPELLGGPSVFLFPPKPKDTLMISRTPEVTCVVVDVSHEDPEVKFNWYVDGVEVHNAKTKPREEQYNSTYRVVSVLTVLHQDWLNGKEYKCKVSNKALPAPIEKTISKAKGQPREPQVCTLPPSRDELTKNQVSLWCLVKGFYPSDIAVEWESNGQPENNYKTTPPVLDSDGSFFLYSKLTVDKSRWQQGNVFSCSVMHEALHNRYTQKSLSLSP
light: DIVMTQSPLSLPVTPGEPASISCRSSQSLVHSNRNTYLHWYQQKPGQAPRLLIYKVSNRFSGVPDRFSGSGSGTDFTLKISRVEAEDVGVYYCGQGTQVPYTFGQGTKLEIKRTVAAPSVFIFPPSDEQLKSGTASVVCLLNNFYPREAKVQWKVDNALQSGNSQESVTEQDSKDSTYSLSSTLTLSKADYEKHKVYACEVTHQGLSSPVTKSFNRGEC
notes: one-arm antibody
B3: CE115HA000 H chain altered form N53W (antibody, human IgG1, kappa, L234A L235A, N297A, name in Kabat numbering)
heavy: QVQLVESGGGVVQPGRSLRLSCAASGFTFSNAWMHWVRQAPGKGLEWVAQIKAKSWNYATYYAESVKGRFTISRDDSKNSLYLQMNSLKTEDTAVYYCRYVHYGAYYGVDAWGQGTTVTVSSASTKGPSVFPLAPSSKSTSGGTAALGCLVKDYFPEPVTVSWNSGALTSGVHTFPAVLQSSGLYSLSSVVTVPSSSLGTQTYICNVNHKPSNTKVDKKVEPKSCDKTHTCPPCPAPEAAGGPSVFLFPPKPKDTLMISRTPEVTCVVVDVSHEDPEVKFNWYVDGVEVHNAKTKPREEQYASTYRVVSVLTVLHQDWLNGKEYKCKVSNKALPAPIEKTISKAKGQPREPQVYTLPPSRCELTKNQVSLSCAVKGFYPSDIAVEWESNGQPENNYKTTPPVLDSDGSFFLVSKLTVDKSRWQQGNVFSCSVMHEALHNHYTQKSLSLSPDYKDDDDK
chain: EPKSSDKTHTCPPCPAPELLGGPSVFLFPPKPKDTLMISRTPEVTCVVVDVSHEDPEVKFNWYVDGVEVHNAKTKPREEQYNSTYRVVSVLTVLHQDWLNGKEYKCKVSNKALPAPIEKTISKAKGQPREPQVCTLPPSRDELTKNQVSLWCLVKGFYPSDIAVEWESNGQPENNYKTTPPVLDSDGSFFLYSKLTVDKSRWQQGNVFSCSVMHEALHNRYTQKSLSLSP
light: DIVMTQSPLSLPVTPGEPASISCRSSQSLVHSNRNTYLHWYQQKPGQAPRLLIYKVSNRFSGVPDRFSGSGSGTDFTLKISRVEAEDVGVYYCGQGTQVPYTFGQGTKLEIKRTVAAPSVFIFPPSDEQLKSGTASVVCLLNNFYPREAKVQWKVDNALQSGNSQESVTEQDSKDSTYSLSSTLTLSKADYEKHKVYACEVTHQGLSSPVTKSFNRGEC
notes: one-arm antibody
B4: CE115HA000 H chain altered form N53Q (antibody, human IgG1, kappa, L234A L235A, N297A, name in Kabat numbering)
heavy: QVQLVESGGGVVQPGRSLRLSCAASGFTFSNAWMHWVRQAPGKGLEWVAQIKAKSQNYATYYAESVKGRFTISRDDSKNSLYLQMNSLKTEDTAVYYCRYVHYGAYYGVDAWGQGTTVTVSSASTKGPSVFPLAPSSKSTSGGTAALGCLVKDYFPEPVTVSWNSGALTSGVHTFPAVLQSSGLYSLSSVVTVPSSSLGTQTYICNVNHKPSNTKVDKKVEPKSCDKTHTCPPCPAPEAAGGPSVFLFPPKPKDTLMISRTPEVTCVVVDVSHEDPEVKFNWYVDGVEVHNAKTKPREEQYASTYRVVSVLTVLHQDWLNGKEYKCKVSNKALPAPIEKTISKAKGQPREPQVYTLPPSRCELTKNQVSLSCAVKGFYPSDIAVEWESNGQPENNYKTTPPVLDSDGSFFLVSKLTVDKSRWQQGNVFSCSVMHEALHNHYTQKSLSLSPDYKDDDDK
chain: EPKSSDKTHTCPPCPAPELLGGPSVFLFPPKPKDTLMISRTPEVTCVVVDVSHEDPEVKFNWYVDGVEVHNAKTKPREEQYNSTYRVVSVLTVLHQDWLNGKEYKCKVSNKALPAPIEKTISKAKGQPREPQVCTLPPSRDELTKNQVSLWCLVKGFYPSDIAVEWESNGQPENNYKTTPPVLDSDGSFFLYSKLTVDKSRWQQGNVFSCSVMHEALHNRYTQKSLSLSP
light: DIVMTQSPLSLPVTPGEPASISCRSSQSLVHSNRNTYLHWYQQKPGQAPRLLIYKVSNRFSGVPDRFSGSGSGTDFTLKISRVEAEDVGVYYCGQGTQVPYTFGQGTKLEIKRTVAAPSVFIFPPSDEQLKSGTASVVCLLNNFYPREAKVQWKVDNALQSGNSQESVTEQDSKDSTYSLSSTLTLSKADYEKHKVYACEVTHQGLSSPVTKSFNRGEC
notes: one-arm antibody

molecular target: T1, CD3 epsilon homodimer protein (UniProt P07766 23-126); assay: SPR Biacore T200, CD3 epsilon homodimer on chip, antibody as analyte;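 further: homodimer amine-coupled to a CM4 sensor chip, run at 25 °C in HBS-EP+ buffer, with kinetic parameters derived in Biacore T200 Evaluation Software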
T1 construct: also called CD3 (CD3 epsilon)
T1 sequence (P07766 23-126): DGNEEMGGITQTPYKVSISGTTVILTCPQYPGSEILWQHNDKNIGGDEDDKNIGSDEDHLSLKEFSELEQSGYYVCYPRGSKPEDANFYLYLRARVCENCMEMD
Description: An appropriate amount of CD3 epsilon homodimer protein was immobilized onto Sensor chip CM4 (GE Healthcare Japan Corp.) by the amine coupling method. Then, the antibody having an appropriate concentration was injected thereto as an analyte and allowed to interact with the CD3 epsilon homodimer protein on the sensor chip. Then, the sensor chip was regenerated by the injection of 10 mmol/L glycine-HCl (pH 1.5). The assay was conducted at 25 degrees C., and HBS-EP+(GE Healthcare Japan Corp.) was used as a running buffer. […] Each parameter was calculated using Biacore T200 Evaluation Software (GE Healthcare Japan Corp.).
Specifically, when the amount of the antibody comprising CE115HA000 bound was defined as X and the amount of the H chain one-amino acid altered form bound was defined as Y, a value of Z (ratio of amounts bound)=Y/X was used.

Point of comparison: B3, “KD ratio (KD of CE115HA000 / KD of altered form)” value 0.69. Against it:
- B1 — higher, 0.79
- B2 — lower, 0.59
- B4 — higher, 1.05
